Reference: a protein production outcome set (Wang et al. 2014)

Experiment: label from the status in PepcDB records

Sequence	protein production
MTLHEHTDEETAEHNLPSKSSGSTRRLALVAVVNFFGFVIELAGGLLFGSVALISDALHMLFDMLAYAMAFGASYTAERFEGGEAWSYGLHRLEPVAAFLNGVLLLPMVGYIVWESYQRFLEPVAINPELTLIIATGGLLVNIGSVYVLQGGEMSLNERGAFYHLLGDAGGSVAVIVSTAAVAVFDLPIADPVAAVLIGLLVLASAGNVLRESTSILLERSPVSSEELRDELTTLDGVDQIEDLHVWQVCSQLTVATVRLTDTSTTLEEQRRIQSRVHDYLTNRGIDHATVELVGRTDPDTDPVGTTNHSH	failed
MSFVSALCRLAVALWVGGATLFTFVLTPTIFRSESRDAAGRIVGYLFPGYFRWGLACGAVALVALLVVRGKNWIPAAALMVVMLAVTAFQALHIEPKAAELKRQIPSFETTTKDHPLRREFSKLHGISAACNLSVIAGGVVLVILL	failed
MAKETVCVTGANGFIGSWIIRTLIEKGYTKIHASIYPGSDPTHLLQLPGSDSKIKIFEADLLDSDAISRAIDGCAGVFHVASPCTLDPPVDPEKELVEPAVKGTINVLEAAKRFNVRRVVITSSISALVPNPNWPEKVPVDESSWSDLDFCKSRQKWYPISKTLAEKAAWEFSEKHGTNIVTIHPSTCLGPLLQPNLNASCAVLLQLLQGSTETQEHHWLGVVHVKDVAKGHVMLFETPDASGRFLCTNGIYQFSEFAALVSKLFPEFAVHKFDKETQPGLTSCNDAAKRLIELGLVFTAVEDAVKETVQSLRDKGFL	failed
DSIVEGRTLNVAVSPASPPMLFKSADGKLQGIDLELFSSYCQSRHCKLNITEYAWDGMLGAVASGQADVAFSGISITDKRKKVIDFSEPYYINSFYLVSMANHKITLNNLNELNKYSIGYPRGMAYSDLIKNDLEPKGYYSLSKVKLYPTYNETMADLKNGNLDLAFIEEPVYFTFKNKKKMPIESRYVFKNVDQLGIAFKKGSPVRDDFNLWLKEQGPQKISGIVDSWMK	not failed
MTKIAILGANGRLGRVVAKAFIDAGFDVRTVTRTGKVPAELDGATAVAGDALDRQSLISATEGVDIIFNGLNPIYTDWGKCLPMAENVMAACHANNALHLFPGTVYNYGSPMPAVITEDTPFHPTTEKGRIRCAMEELFRREADAGRVRTILLRAGDFFGGTGSGSWFDLVVAAKMSKGVYTAPGPVDLVHEWAYLPDFAVGFVALARNLDRLGSYEALNFPGHAVTDLEIKAAAEKALGRPLKMTSMPWWVLRAGSPFVAMWREIVSMSYLRFEPHQLASTRLEGIIGEIPHTPLDQAVAQALEDIGIATVKGMKAA	failed
MDITSLINANVICLDLTSTSKEDILQEMVQILDDAGKLSNKTQFLSDVWAREEIGNTGFEDGIAIPHAKSSAVLTPSVAIGISRTGIDYGAEDGEPSDIFFMLASTDGDDNQHIEALAQISSRLIEDGFTNKLKKADSKEEILDLFTDIIQPNTESTDIENAPSQIEKSELTRKLGRTKEHLLFGTSHMIPFIVAGGVLLSLSVMISGQGAVPTEGILADIAQMGIAGLTLFTAVLGGYIAYSIADKPGLAPGMIGSWIAVQQYNTGFLGAIIIGFFAGFVVRSLKKIKLPESMASLGSIFIYPLVGTFLTCAAVMWVIGAPISNAMAALNEWLASMAGSGKIALGAILGAMAAFDMGGPINKVATLFAQTQVNTQPWLMGGVGIAICTPPLGMALATFLSPKKFKRDEREAGKAAGIMGMIGITEGAIPFAAADPARVIPAIVAGGIVGNITGFVFNVLNHAPWGGWIVLPVVDGKIGYIIGTLLGAFTTAAIVILLKKNAVEDDEHTQQKFTFESVKNEGEADVLAVTACPSGVAHTFLAAKSLEKAAHKLGIKIKVETQGADGINNRITPLDIKNAKLVIFAHDVAIKEPLRFKGMRTLDIATKDAMYSAEQLLNDNLTKHHKRFSKA	failed
PMNGKEKAASYDKVVDVDVKLGQVSVKNPKGTAHEMPKTFTFDAVYDWNAKQFELYDETFRPLVDSVLQGFNGTIFAYGQTGTGKTYTMEGIRGDPEKRGVIPNSFDHIFTHISRSQNQQYLVRASYLEIYQEEIRDLLSKDQTKRLELKERPDTGVYVKDLSSFVTKSVKEIEHVMNVGNQNRSVGATNMNEHSSRSHAIFVITIECSEVGLDGENHIRVGKLNLVDLAGSERQAKTGAQGERLKEATKINLSLSALGNVISALVDGKSTHIPYRDSKLTRLLQDSLGGNAKTVMVANVGPASYNVEETLTTLRYANRAKNIKNKPRVNEDPKDAL	failed
MNEQIDPFYEAKQEVDISVNKLQSLYNNWNNIPDKSSISAREKYNLIKEEIKYLNEDLNDLDNSVNIVKKNSYKFNISSQEIEERTQSLRIIRNLLNEITNNINNNVLSYNNNTNNDYNSVILKRQDNDLEELAESAERLHHAAITINTELKDQQKLLDELENEMDISSNEYKMDIYSIYIFVYFEFS	failed
MSHVLVNVAWPYANGPRHIGHVAGFGVPSDVYARYERMKGNDVLMVSGTDEHGTPILVEAEKEGLTAQELANRYNRVIAKDLCDLGLSYDLFTRTTTGNHEHVVQEMFKQCLENGYIYKGSQQVAISPSTGRTLPDRYIEGECPICHAEGARGDQCDACGNELDPDELINPVSKINGETPRFEQTEHYFLDLPALAEANKAWLETRKGWRTNVINFSLGLFKEVKPRAITRDIDWGIPVPVKGWIDNPNKKLYVWFDAVIGYLSASIEWARRQGDPEKWREWWNDPKCPAYYFMGKDNITFHSQIWPSEMLAYNGKGSKGGETGPMGPLNLPEQVVASEFMTMEGKKFSSSRGIVIYVKDILARYPVDAVRYYISVAGPESSDSDFTWAEFVRHNNEELASSWGNLVNRVANLINKNFGEIPPLDEDSMTNEDRGLLEEASAAFDVVGSSIETHHQKHALSEAMRVVGDINKYISATEPWKIKDDQARLGTVLHVAAQAVSDANHLLAPFLPHSAQKVWEALGGTGTFSPLPELKEVEDLDKPGFTYPIITGDYELGVNVHPWKSEAIEVGAVVPKPAPIFAKIPTEAVEEELARFDEALAARRAAEAERLAAEKAKLAAE	failed
MSLSQRTLLLLSQDNAHYERLLKAAHLPHLRILRADNQSDAEKLIGEAHILMAEPARAKPLLAKANKLSWFQSTYAGVDVLLDARCRRDYQLTNVRGIFGPLMSEYVFGHLLSLMRQLPLYREQQKQRLWQSHPYQGLKGRTLLILGTGSIGQHIAHTGKHFGMKVLGVSRSGRERAGFDQVYQLPALNKMLAQADVIVSVLPATRETHHLFTASRFEHCKPGAILFNVGRGNAINEGDLLTALRTGKLGMAVLDVFEQEPLPADSPLWGQPNLIITPHNSAYSFPDDVAQIFVRNYIRFIDGQPLDGKIDFDKGYEGHHHHHH	not failed
MKRRRRNSKLKFEETSDQSPTSTAEFSFSLTKIAVSQICQSIGYKATDASALNTLTLTTTKFLQSLAELASSFSNTANRTEVNLFDIVNGLQDIALSTSDCFPGGSTVHDIESQCLIKSAVLRNLSDFVTYAPEIPFAKPLPRRERDGSFGGDLDHVAVTRSVDVTSVPAWLPPFPDSSLCSDRCSKDNRSDHLWENSDSVIRREILPESLKSKSGGRLPVMRDKVRFKMEQRDWSSGGDTRLERSRDNNNGESGRDLEVKKKIREGYTYCAGEWPF	failed
LLEIKRKGAKRGSQHYSDRTCARCQESLGRLSPKTNTCRGCNHLVCRDCRIQESNGTWRCKVC	not failed
QYDPYKNPESAQTRRNTVLQQMYQDKNISKKEYDQAVATPVTDGLKELKQKSTYPKYMDNYLKQVISEVKQKTGKDIFTAGL	failed
MSSHPPIRSYVLRQGYFSNAQRHAYESLLPRYGIPLTEEPVDLDSIFGRTAPGILEIGSGMGETTAEIARQHPEKDFIAIEVHAPGIGSLLGQIEKHRLTNLRIIPHDAKLVLQQMFTSESLDGIHIFFPDPWPKARHHKRRLIQPDFVSLLCDRLKPGGYLHIATDWEDYATHILHVLRSEERFVNTAVDYAARPAYRPLTKFEQRGMKLGHTIRDIIFTRTALEHHHHHH	failed
MGEGGQRATPSVTKIVGGEMAARVRAFDWSKTPLGPREDWSPALRLATDIVLASNFPMALRWGPELVLIYNDGYAPALHERHPSALGQSFYDTTPEFQAALRELHQDILTGTSGGFAFERLPLKVLKNGVLEAAYFTVNYSPVPDETAPNGIGGVLVAAVEISQSVKAEQTLRATQERYQ	failed
